In PMC4511006 (2015):
Ends that are not written are not given here.

Biological target: C1q CLR (collagen-like region) (UniProt P02745 31-109; P02747 31-112)
Experiment: SPR

Binder: IALILEPICCQERAA (cysteine pairing not given here; also: acetylated, position not given here) [Acetylated PA (AcPA)]
- koff: 0.000219 s⁻¹
